{"source": "patent US20220235138A1", "about": "“CAR-T CELLS TARGETING IL-1RAP AND THEIR USE IN ACUTE MYELOID LEUKEMIA (AML)” (ETABLISSEMENT FRANCAIS DU SANG, priority 2019, published 2022)", "molecules": {"B1": {"name": "#A3C3: mouse anti-hIL-1RAP monoclonal antibody generated by standard hybridoma technique; VH SEQ ID No 2, VL SEQ ID No 4 (antibody, V domains shown)", "VH": "MGWSCIILFLVATATGVNSQVQLQQPGAELMMPGASVKVSCEASGYTFTDSWMHWVKQRPGQGLEWIGAIDPSDSYTTYNQKFTGKATLSVDESSNTAYMQLSSLTSEDSAVYYCARYYSGSNYISPFPYWGQGTLVTVSA", "VL": "MESQIQVFVFVFLWLSGVDGDIVMTQSHKFMSTSVGDRVTITCKASLDVSTAVAWYQQKPGQSPKLLIYSASYRYTGVPDRFTGSGSGTDFTFTISSVQAEDLAVYYCQQHYSPPFTFGSGTNLEIK", "modifications": "Amino acid sequence of chain H (VH) of murine scFv anti-IL-1RAP; Amino acid sequence of chain K (VL) of murine scFv anti-IL-1RAP"}}, "key": {"[1]": {"system": "HMEC-1 endothelial cell line", "test": "Flow cytometry staining of HMEC-1 dermal endothelial cell line", "type": "binding, human", "conditions": "microvascular HMEC-1 endothelial cell line", "description": "FIG. 13: (A) Tissue microarray. Representative #A3C3 staining of an US Food and Drug Administration standard frozen tissue array, including 90 tissue cores (30 organs) of 3 individual donors per organ (US Biomax, Rockville, Md., USA). Immunostaining was detected using the UltraView Universal DAB Detection Kit (Ventana, USA). Images were acquired and analyzed with NDP.view 2.0 software. […] (Scale bars, 100 μm.) High IL-1RAP (KU812) or negative (Raji)-expressing cell lines were respectively used as positive or negative controls. (B) IL-1RAP R&D (red) or #A3C3 (blue) staining of HMEC-1 dermal endothelial cell line. Isotype IgG1 (gray) is depicted as overlay. RFI is provided for both staining.\nIn order to predict off-target toxicity, we used the #A3C3 mAb to investigate IL-1RAP expression using a tissue macroarray (TMA) of 30 normal human tissues."}, "IL-1RAP": {"system": "IL-1RAP", "sequence (Q9NPH3 21-570)": "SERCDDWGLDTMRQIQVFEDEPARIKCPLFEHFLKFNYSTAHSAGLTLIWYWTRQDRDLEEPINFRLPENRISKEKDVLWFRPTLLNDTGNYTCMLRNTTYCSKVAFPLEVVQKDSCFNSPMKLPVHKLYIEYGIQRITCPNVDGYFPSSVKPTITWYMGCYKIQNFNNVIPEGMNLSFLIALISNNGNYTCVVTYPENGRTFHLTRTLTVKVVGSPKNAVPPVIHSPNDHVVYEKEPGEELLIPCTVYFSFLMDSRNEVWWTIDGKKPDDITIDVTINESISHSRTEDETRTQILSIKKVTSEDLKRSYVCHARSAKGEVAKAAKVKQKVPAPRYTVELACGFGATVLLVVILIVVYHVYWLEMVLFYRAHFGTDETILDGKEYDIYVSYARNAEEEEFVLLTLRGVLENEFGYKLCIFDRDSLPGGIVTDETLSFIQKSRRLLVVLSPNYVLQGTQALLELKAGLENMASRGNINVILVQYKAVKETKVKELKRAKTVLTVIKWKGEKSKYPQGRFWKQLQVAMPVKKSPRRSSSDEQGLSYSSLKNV", "test": "Western blotting and cell surface staining of AML cell lines", "type": "binding, human", "description": "Whole cellular lysates of different AML or CML (positive control) hematopoietic cell lines were separated by polyacrylamide gel electrophoresis and electrotransferred onto polyvinylidene difluoride membranes. Membranes were probed overnight with primary IL-1RAP #A3C3 (diluted at 1:20). Twenty micrograms of protein were electrophoresed on sodium dodecyl-sulfate polyacrylamide gels (SDS-PAGE), and then sonicated protein fractions were suspended in RIPA buffer supplemented with a protease inhibitor cocktail (complete Mini EDTA-free; Roche, Bale, Switzerland). Protein load in the western blot lane was evaluated with β-actin mAb staining (1:1000, clone AC15, #A5441, Sigma-Aldrich). Immunodetection staining was performed with a secondary polyclonal antibody sheep anti-mouse IgG (#515-035-062, Jackson). Enhanced chemiluminescence detection reagents allowed detection with a camera and Bio-1D software (Vilber-Lourmat, Collegien, France).\nIL-1RAP cell surface staining of different hematopoietic AML cell lines was performed, using #A3C3 mAb and IL-1RAP murine mAb as staining comparison.\nRelative Fluorescence Intensity (RFI) between IL-1RAP staining and isotype was calculated. IL-1RAP+ (KU812) or IL-1RAP-(Raji) cell lines were used as positive or negative controls respectively."}, "AML blasts": {"system": "AML blasts", "test": "Flow cytometry on primary cells from AML patients", "type": "cell-based, human", "conditions": "all subtypes, n=30", "description": "FIG. 3: Flow cytometry-gating strategy on AML primary samples of patients. RFI is provided for blasts and monocytes subpopulations (Left). Percentage of IL-1RAP+ within AML blasts and monocytes, CD123+ and IL-1RAP+/CD123+ cells within AML Blasts in a cohort of routine AML (all subtypes) patients (n=30) (Right, up). RFI is also provided (Right, bottom).\nFor primary samples of bone marrow or peripheral bloods of AML patients, the murine IL-1RAP mAb (#E3C3) was included in a panel allowing to detect CD45, CD34, CD38, CD33, CD123, and CD14 (for monocytes). Stained cells were collected by a CANTO II cytometer (BD Biosciences, Le Pont-de-Claix, France) and analyzed by DIVA 6.1 software (BD Biosciences, Le Pont-de-Claix, France)."}, "[2]": {"target": "T1, IL-1RAP recombinant protein (Homo sapiens, UniProt Q9NPH3)", "T1 construct": "recombinant fusion protein consisting of the extra cellular part of IL-1RAP (NM_002182.2, NCBI) and the Fc-part of human IgG1; purchased R&D Systems", "T1 sequence (Q9NPH3 21-367 limits assumed)": "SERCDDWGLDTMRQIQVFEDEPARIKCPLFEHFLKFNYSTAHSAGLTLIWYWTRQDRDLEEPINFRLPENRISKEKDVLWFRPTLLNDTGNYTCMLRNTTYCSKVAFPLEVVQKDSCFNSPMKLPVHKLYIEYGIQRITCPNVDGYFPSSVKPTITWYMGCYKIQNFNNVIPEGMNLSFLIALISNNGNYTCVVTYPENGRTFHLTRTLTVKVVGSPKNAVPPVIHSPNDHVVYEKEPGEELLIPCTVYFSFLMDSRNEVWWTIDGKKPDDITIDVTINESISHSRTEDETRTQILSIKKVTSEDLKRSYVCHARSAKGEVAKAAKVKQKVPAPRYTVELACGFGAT", "test": "ELISA detection of recombinant IL-1RAP protein", "type": "binding", "description": "Anti-human Fc antibody was coated on a bottom of a plastic ELISA plate."}}, "data": [{"molecule": "B1", "values": [{"measurement": "recognition of cell surface IL-1RAP on HMEC-1", "setting": "[1]", "result": "not recognized"}, {"measurement": "staining of AML cell lines expressing IL-1RAP at the cell surface", "setting": "IL-1RAP", "result": "able to stain different AML cell lines"}, {"measurement": "presence of IL-1RAP on AML blasts, percentage", "setting": "AML blasts", "result": "84.27±17.4", "unit": "%"}, {"measurement": "recognition of IL-1RAP recombinant protein", "setting": "[2]", "result": "recognize the IL-1RAP recombinant protein"}]}]}
